Substitutions are numbered along the chain they refer to. Values joined by “and” are separate entries in the source; they are usually repeats but may differ in a detail not shown here. Identical values can stand only once.
B1: 17Q, 72A (protein, listed as Rattus norvegicus)
chain: AFDGTWKVDRNENYEKQMEKMGINVVKRKLGAHDNLKLTITQEGNKFTVKESSNFRNIDVVFELGVDFAYSAADGTELTGTWTMEGNKLVGKFKRVDNGKELIAVREISGNELIQTYTYEGVEAKRIFKKE
modifications: PEPTIDE (1)...(131) wild-type rat intestinal fatty acid binding protein
B2: 17Y, 72A (protein, listed as Rattus norvegicus)
chain: B1 chain with Q17Y
modifications: PEPTIDE (1)...(131) wild-type rat intestinal fatty acid binding protein
B3: 17S, 72A (protein, listed as Rattus norvegicus)
chain: B1 chain with Q17S
modifications: PEPTIDE (1)...(131) wild-type rat intestinal fatty acid binding protein
B4: 17W, 72A (protein, listed as Rattus norvegicus)
chain: B1 chain with Q17W
modifications: PEPTIDE (1)...(131) wild-type rat intestinal fatty acid binding protein
B5: 17T, 72A (protein, listed as Rattus norvegicus)
chain: B1 chain with Q17T
modifications: PEPTIDE (1)...(131) wild-type rat intestinal fatty acid binding protein
B6: 17V, 72A (protein, listed as Rattus norvegicus)
chain: B1 chain with Q17V
modifications: PEPTIDE (1)...(131) wild-type rat intestinal fatty acid binding protein
B7: 18Q, 72A (protein, listed as Rattus norvegicus)
chain: B1 chain with Q17F, M18Q
modifications: PEPTIDE (1)...(131) wild-type rat intestinal fatty acid binding protein
B8: 21W, 72A (protein, listed as Rattus norvegicus)
chain: B1 chain with Q17F, M21W
modifications: PEPTIDE (1)...(131) wild-type rat intestinal fatty acid binding protein
B9: 17R, 72A (protein, listed as Rattus norvegicus)
chain: B1 chain with Q17R
modifications: PEPTIDE (1)...(131) wild-type rat intestinal fatty acid binding protein

Experiment: Probe fluorescence ratio response to arachidonic acid relative to ADIFAB2
Format: binding
Details: arachidonic acid; response relative to ADIFAB2
Outline: (§1)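 Each fatty acid's response was expressed relative to ADIFAB2, the rI-FABP-L72A probe, as ΔR/ΔRreference. ΔR is the change in the background-corrected two-wavelength intensity ratio R=Fλ1/Fλ2 from its analyte-free baseline R0. Emission was read near about 420-480 nm for unbound and about 495-580 nm for FFA-bound probe.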
With B1 the “DR/DR AA” value was 0.62.
In the case of B2, the “DR/DR AA” value is reported as 0.73 and 0.729.
For B3, the “DR/DR AA” value was 0.50.
With B4 the “DR/DR AA” value was 1.42 and 1.421.
With B5 the “DR/DR AA” value was 0.50.
With B6 the “DR/DR AA” value was 0.64 and 0.639.
In the case of B7, the “DR/DR AA” value is reported as 0.09.
For B8, the “DR/DR AA” value was 3.70.
In the case of B9, the “DR/DR AA” value is reported as 0.43.

Experiment: Probe fluorescence ratio response to linolenic acid relative to ADIFAB2
Format: binding
Details: response relative to ADIFAB2
Outline: as §1
With B1 the “DR/DR LNA” value was 0.59.
For B2, the “DR/DR LNA” value was 0.81 and 0.806.
With B3 the “DR/DR LNA” value was 0.61.
In the case of B4, the “DR/DR LNA” value is reported as 1.61 and 1.611.
For B5, the “DR/DR LNA” value was 0.51.
With B6 the “DR/DR LNA” value was 0.59 and 0.586.
With B7 the “DR/DR LNA” value was 0.13.
With B8 the “DR/DR LNA” value was 2.40.
For B9, the “DR/DR LNA” value was 0.48.

Experiment: Probe fluorescence ratio response to linoleic acid relative to ADIFAB2
Format: binding
Details: response relative to ADIFAB2
Outline: as §1
For B1, the “DR/DR LA” value was 0.59.
In the case of B2, the “DR/DR LA” value is reported as 0.71 and 0.712.
In the case of B3, the “DR/DR LA” value is reported as 0.56.
In the case of B4, the “DR/DR LA” value is reported as 1.42 and 1.416.
With B5 the “DR/DR LA” value was 0.51.
In the case of B6, the “DR/DR LA” value is reported as 0.55 and 0.549.
With B7 the “DR/DR LA” value was 0.11.
In the case of B8, the “DR/DR LA” value is reported as 2.43.
For B9, the “DR/DR LA” value was 0.52.

Experiment: Probe fluorescence ratio response to oleic acid relative to ADIFAB2
Format: binding
Details: response relative to ADIFAB2
Outline: as §1
For B1, the “DR/DR OA” value was 0.55.
With B2 the “DR/DR OA” value was 0.73 and 0.732.
In the case of B3, the “DR/DR OA” value is reported as 0.47.
With B4 the “DR/DR OA” value was 1.24 and 1.241.
In the case of B5, the “DR/DR OA” value is reported as 0.49.
With B6 the “DR/DR OA” value was 0.56 and 0.558.
With B7 the “DR/DR OA” value was 0.08.
With B8 the “DR/DR OA” value was 3.02.
With B9 the “DR/DR OA” value was 0.45.

Experiment: Probe fluorescence ratio response to palmitic acid relative to ADIFAB2
Format: binding
Details: response relative to ADIFAB2
Outline: as §1
For B1, the “DR/DR PA” value was 0.29.
In the case of B2, the “DR/DR PA” value is reported as 0.50.
With B3 the “DR/DR PA” value was 0.25.
For B4, the “DR/DR PA” value was 1.07 and 1.067.
With B5 the “DR/DR PA” value was 0.25.
With B6 the “DR/DR PA” value was 0.31 and 0.308.
In the case of B7, the “DR/DR PA” value is reported as 0.09.
With B8 the “DR/DR PA” value was 1.45.
For B9, the “DR/DR PA” value was 0.22.
